Experimental data from PMC12070071, “The Drosophila pseudokinase Tribbles translocates to the fat body membrane in response to fasting to modulate insulin sensitivity” (Development (Cambridge, England), 2025).
Substitutions are numbered along the chain they refer to.

T1: Drosophila Tribbles activation loop mutant Trbl^SLE/G, yeast two-hybrid bait (Drosophila, UniProt Q9V3Z1 1-484, SLE/G (replacement of E286 with glycine))
T1 construct: also called pDEST32-Trbl^SLE/G; source: yeast two-hybrid fusion (MaV203 yeast)
T1 sequence (looked up): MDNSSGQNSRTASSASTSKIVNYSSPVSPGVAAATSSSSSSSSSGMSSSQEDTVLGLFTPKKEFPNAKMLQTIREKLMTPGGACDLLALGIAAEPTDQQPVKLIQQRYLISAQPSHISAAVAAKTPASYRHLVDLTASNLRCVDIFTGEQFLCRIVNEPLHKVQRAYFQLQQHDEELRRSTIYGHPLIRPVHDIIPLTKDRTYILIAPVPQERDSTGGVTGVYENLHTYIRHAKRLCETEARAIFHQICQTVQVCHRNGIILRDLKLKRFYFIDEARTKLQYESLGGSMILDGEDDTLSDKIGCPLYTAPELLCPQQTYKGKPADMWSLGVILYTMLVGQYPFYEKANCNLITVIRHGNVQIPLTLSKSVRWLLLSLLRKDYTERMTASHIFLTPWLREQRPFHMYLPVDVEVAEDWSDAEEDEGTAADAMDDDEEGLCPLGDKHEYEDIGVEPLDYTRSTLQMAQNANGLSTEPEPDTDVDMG

B1: Drosophila Tribbles (Trbl), wild type, yeast two-hybrid fusion (natural protein, UniProt Q9V3Z1 1-484, looked up)
chain: T1 sequence (looked up) with G286E
notes: Tribbles (Trbl), Drosophila pseudokinase; WT Trbl ORF; One molecule for both two-hybrid copies: each copy carries only one of the two tags; also called WT Trbl; pDEST32-Trbl; source: yeast two-hybrid fusion (MaV203 yeast)
B2: Drosophila Akt, yeast two-hybrid prey (pDEST22-dAkt) (natural protein, UniProt Q8INB9 1-611, looked up)
chain: MNYLPFVLQRRSTVVASAPAPGSASRIPESPTTTGSNIINIIYSQSTHPNSSPTSGSAEKFSWQQSWPSRTSAAPTHDSGTMSINTTFDLSSPSVTSGHALTEQTQVVKEGWLMKRGEHIKNWRQRYFVLHSDGRLMGYRSKPADSASTPSDFLLNNFTVRGCQIMTVDRPKPFTFIIRGLQWTTVIERTFAVESELERQQWTEAIRNVSSRLIDVGEVAMTPSEQTDMTDVDMATIAEDELSEQFSVQGTTCNSSGVKKVTLENFEFLKVLGKGTFGKVILCREKATAKLYAIKILKKEVIIQKDEVAHTLTESRVLKSTNHPFLISLKYSFQTNDRLCFVMQYVNGGELFWHLSHERIFTEDRTRFYGAEIISALGYLHSQGIIYRDLKLENLLLDKDGHIKVADFGLCKEDITYGRTTKTFCGTPEYLAPEVLDDNDYGQAVDWWGTGVVMYEMICGRLPFYNRDHDVLFTLILVEEVKFPRNITDEAKNLLAGLLAKDPKKRLGGGKDDVKEIQAHPFFASINWTDLVLKKIPPPFKPQVTSDTDTRYFDKEFTGESVELTPPDPTGPLGSIAEEPLFPQFSYQGDMASTLGTSSHISTSTSLASMQ
notes: Akt kinase, Drosophila (dAkt); Akt open reading frame amplified from an Akt cDNA (Origene); source: yeast two-hybrid fusion (MaV203 yeast)

Tests used:
[1] = target: T1, Drosophila Tribbles activation loop …; test: two-hybrid; MaV203 yeast; bait in pDEST32, prey in pDEST22; colony growth of co-transformants on media with increasing concentrations of 3-AT (His3 reporter); settings: partners not purified
[2] = target: B1; test: as above; settings: partners not purified

| highest 3AT concentration with growth [1] [mM 3AT] | highest 3AT concentration with growth [2] [mM 3AT] | Binder |
| --- | --- | --- |
| 100 |  | B1 |
| 100 | 50 | B2 |
